Laboratory results: the Immune Epitope Database (IEDB)

Experiments:
HLA-A*03:01 [1] = test: IEDB peptide-MHC binding, purified MHC/competitive/radioactivity; filed as Kd, often an IC50 or EC50 that approximates it; ≥ and ≤ were set here for values at or beyond the usual limits of such assays
HLA-A*11:01 = test: as above
HLA-A*31:01 = test: as above
HLA-A*33:01 = test: as above
HLA-A*68:01 = test: as above
HLA-A*02:02 = test: as above
HLA-A*02:03 = test: as above
HLA-A*02:06 = test: as above
HLA-A*03:01 [2] = test: IEDB peptide-MHC binding, purified MHC/direct/fluorescence; filed as Kd, often an IC50 or EC50 that approximates it; ≥ and ≤ were set here for values at or beyond the usual limits of such assays; details: source organism: Bacillus thuringiensis
HLA-A*02:01 = test: as above; details: source organism: Mycobacterium tuberculosis
[3] = source organism: Vaccinia virus WR
[4] = source organism: SARS coronavirus Tor2
[5] = source organism: Mammarenavirus lassaense
[6] = source organism: Mammarenavirus brazilense
[7] = source organism: Mammarenavirus juninense

Sequence: SSDSENNPEY
- Kd (HLA-A*03:01 [1]; [3]): ≥ 70.1 µM
- Kd (HLA-A*11:01; [3]): 4.46 µM
- Kd (HLA-A*31:01; [3]): ≥ 70 µM
- Kd (HLA-A*33:01; [3]): ≥ 70 µM
- Kd (HLA-A*68:01; [3]): ≥ 70.2 µM

Sequence: SSESLVYGIR
- Kd (HLA-A*03:01 [1]; [3]): ≥ 34.8 µM
- Kd (HLA-A*11:01; [3]): 0.476 µM
- Kd (HLA-A*31:01; [3]): 0.78 µM
- Kd (HLA-A*33:01; [3]): 0.623 µM
- Kd (HLA-A*68:01; [3]): 0.475 µM

Sequence: SVDVDIYDAV
- Kd (HLA-A*02:02; [3]): 0.000427 µM
- Kd (HLA-A*02:03; [3]): 0.00918 µM
- Kd (HLA-A*02:06; [3]): 0.0033 µM

Sequence: SVQLSNNKYV
- Kd (HLA-A*02:02; [3]): 1.22 µM
- Kd (HLA-A*02:03; [3]): 0.82 µM
- Kd (HLA-A*02:06; [3]): 8.83 µM

Sequence: SVTKSSSWK
- Kd (HLA-A*03:01 [1]; [3]): 0.00762 µM
- Kd (HLA-A*11:01; [3]): 0.00251 µM
- Kd (HLA-A*31:01; [3]): 19.6 µM
- Kd (HLA-A*33:01; [3]): ≥ 77.7 µM
- Kd (HLA-A*68:01; [3]): 0.0412 µM

Sequence: TAATKRYPGV
- Kd (HLA-A*02:02; [3]): ≥ 25.5 µM
- Kd (HLA-A*02:03; [3]): 10.5 µM
- Kd (HLA-A*02:06; [3]): 5.57 µM

Sequence: TFFIFNKLVK
- Kd (HLA-A*03:01 [1]; [4]): 0.0818 µM
- Kd (HLA-A*11:01; [4]): 0.0505 µM
- Kd (HLA-A*31:01; [4]): 1.55 µM
- Kd (HLA-A*33:01; [4]): 1.37 µM
- Kd (HLA-A*68:01; [4]): 0.49 µM

Sequence: TIDNIVTSLA
- Kd (HLA-A*02:02; [3]): ≥ 70 µM
- Kd (HLA-A*02:03; [3]): ≥ 70.4 µM
- Kd (HLA-A*02:06; [3]): ≥ 69.8 µM

Sequence: TILIRTGLLV
- Kd (HLA-A*02:06; source organism: Dengue virus 2 Jamaica/1409/1983): 0.101 µM

Sequence: TLDAANHSI
- Kd (HLA-A*02:02; [4]): 0.0924 µM
- Kd (HLA-A*02:03; [4]): 0.283 µM
- Kd (HLA-A*02:06; [4]): 0.0289 µM

Sequence: TLDDLAIKQY
- Kd (HLA-A*03:01 [1]; [3]): 18.4 µM
- Kd (HLA-A*11:01; [3]): 2.92 µM
- Kd (HLA-A*31:01; [3]): ≥ 70 µM
- Kd (HLA-A*33:01; [3]): ≥ 70 µM
- Kd (HLA-A*68:01; [3]): ≥ 62.4 µM

Sequence: TMKPHTFNK
- Kd (HLA-A*03:01 [2]): 0.12 µM

Sequence: TSEKYSKGYK
- Kd (HLA-A*03:01 [1]; [3]): ≥ 25 µM
- Kd (HLA-A*11:01; [3]): 1.05 µM
- Kd (HLA-A*31:01; [3]): ≥ 70 µM
- Kd (HLA-A*33:01; [3]): ≥ 70 µM
- Kd (HLA-A*68:01; [3]): 0.924 µM

Sequence: TSETMYLTMK
- Kd (HLA-A*03:01 [1]; [3]): 1.92 µM
- Kd (HLA-A*11:01; [3]): 0.111 µM
- Kd (HLA-A*31:01; [3]): 2 µM
- Kd (HLA-A*33:01; [3]): 11 µM
- Kd (HLA-A*68:01; [3]): 0.471 µM

Sequence: TSFGPLVRK
- Kd (HLA-A*03:01 [1]; [4]): 0.00439 µM
- Kd (HLA-A*11:01; [4]): 0.00021 µM
- Kd (HLA-A*31:01; [4]): 0.452 µM
- Kd (HLA-A*33:01; [4]): 5.25 µM
- Kd (HLA-A*68:01; [4]): 0.00704 µM

Sequence: TTFITVLTSV
- Kd (HLA-A*02:02; [3]): 1.12 µM
- Kd (HLA-A*02:03; [3]): 0.0161 µM
- Kd (HLA-A*02:06; [3]): 0.166 µM

Sequence: TTNNLLEQLI
- Kd (HLA-A*02:02; [3]): 8.88 µM
- Kd (HLA-A*02:03; [3]): ≥ 21 µM
- Kd (HLA-A*02:06; [3]): 13.1 µM

Sequence: VAVNKSNKPL
- Kd (HLA-A*02:02; [3]): 2.75 µM
- Kd (HLA-A*02:03; [3]): 5.13 µM
- Kd (HLA-A*02:06; [3]): 17.6 µM

Sequence: VCSFYADPK
- Kd (HLA-A*03:01 [1]; [5]): 3.84 µM
- Kd (HLA-A*11:01; [5]): 3.13 µM
- Kd (HLA-A*31:01; [5]): ≥ 27.2 µM
- Kd (HLA-A*33:01; [5]): ≥ 77.7 µM
- Kd (HLA-A*68:01; [5]): 5.68 µM

Sequence: VFHLYLQYIR
- Kd (HLA-A*03:01 [1]; [4]): 0.713 µM
- Kd (HLA-A*11:01; [4]): 1.15 µM
- Kd (HLA-A*31:01; [4]): 0.0563 µM
- Kd (HLA-A*33:01; [4]): 0.174 µM
- Kd (HLA-A*68:01; [4]): 0.868 µM

Sequence: VLAGIFAGV
- Kd (HLA-A*02:01): ≤ 0.001 µM

Sequence: VMCGGSLYV
- Kd (HLA-A*02:02; [4]): 0.000606 µM
- Kd (HLA-A*02:03; [4]): 0.0075 µM
- Kd (HLA-A*02:06; [4]): 0.00681 µM

Sequence: VQLSNNKYV
- Kd (HLA-A*02:02; [3]): 7.34 µM
- Kd (HLA-A*02:03; [3]): 0.541 µM
- Kd (HLA-A*02:06; [3]): 0.214 µM

Sequence: VSLVKKNKK
- Kd (HLA-A*03:01 [1]; [3]): ≥ 58.5 µM
- Kd (HLA-A*11:01; [3]): 2.28 µM
- Kd (HLA-A*31:01; [3]): 0.856 µM
- Kd (HLA-A*33:01; [3]): ≥ 77.7 µM
- Kd (HLA-A*68:01; [3]): ≥ 27.4 µM

Sequence: VTFRERYSY
- Kd (HLA-A*03:01 [1]; [3]): 0.0565 µM
- Kd (HLA-A*11:01; [3]): 0.0045 µM
- Kd (HLA-A*31:01; [3]): 0.0819 µM
- Kd (HLA-A*33:01; [3]): ≥ 5 µM
- Kd (HLA-A*68:01; [3]): 0.106 µM

Sequence: VTGLFKDCSK
- Kd (HLA-A*03:01 [1]; [4]): 4.67 µM
- Kd (HLA-A*11:01; [4]): 4.74 µM
- Kd (HLA-A*31:01; [4]): 5.12 µM
- Kd (HLA-A*33:01; [4]): ≥ 57.1 µM
- Kd (HLA-A*68:01; [4]): 10.3 µM

Sequence: VTLDFTKFH
- Kd (HLA-A*03:01 [1]; [6]): 7.44 µM
- Kd (HLA-A*11:01; [6]): 0.208 µM
- Kd (HLA-A*31:01; [6]): 13.1 µM
- Kd (HLA-A*33:01; [6]): ≥ 57.2 µM
- Kd (HLA-A*68:01; [6]): ≥ 28.4 µM

Sequence: VVECLTVPNI
- Kd (HLA-A*02:02; [3]): 8.42 µM
- Kd (HLA-A*02:03; [3]): 19.6 µM
- Kd (HLA-A*02:06; [3]): 0.301 µM

Sequence: VVFLHVTYV
- Kd (HLA-A*02:02; [4]): 0.00775 µM
- Kd (HLA-A*02:03; [4]): 0.000281 µM
- Kd (HLA-A*02:06; [4]): 0.00386 µM

Sequence: VVMDYLDNLK
- Kd (HLA-A*03:01 [1]; [4]): 6.52 µM
- Kd (HLA-A*11:01; [4]): 1.96 µM
- Kd (HLA-A*31:01; [4]): ≥ 36.6 µM
- Kd (HLA-A*33:01; [4]): ≥ 46.9 µM
- Kd (HLA-A*68:01; [4]): 6.73 µM

Sequence: YIENTNQGNI
- Kd (HLA-A*02:02; [3]): 1.22 µM
- Kd (HLA-A*02:03; [3]): 0.582 µM
- Kd (HLA-A*02:06; [3]): 6.2 µM

Sequence: YIWIKNLET
- Kd (HLA-A*02:02; [3]): 12.6 µM
- Kd (HLA-A*02:03; [3]): 1.18 µM
- Kd (HLA-A*02:06; [3]): 0.347 µM

Sequence: YLGHSAGFT
- Kd (HLA-A*02:02; [3]): 0.874 µM
- Kd (HLA-A*02:03; [3]): 0.225 µM
- Kd (HLA-A*02:06; [3]): 4.55 µM

Sequence: YLLGDSDSVA
- Kd (HLA-A*02:02; [3]): 0.00197 µM
- Kd (HLA-A*02:03; [3]): 0.0228 µM
- Kd (HLA-A*02:06; [3]): 0.135 µM

Sequence: YNFSLSAAV
- Kd (HLA-A*02:02; [7]): ≥ 46.2 µM
- Kd (HLA-A*02:03; [7]): ≥ 78.1 µM
- Kd (HLA-A*02:06; [7]): ≥ 77 µM

Sequence: YNYSLSAAV
- Kd (HLA-A*02:02; [6]): 0.0789 µM
- Kd (HLA-A*02:03; [6]): 0.0672 µM
- Kd (HLA-A*02:06; [6]): 0.0884 µM

Sequence: YTGGYDVSL
- Kd (HLA-A*02:02; [3]): 1.99 µM
- Kd (HLA-A*02:03; [3]): 6.05 µM
- Kd (HLA-A*02:06; [3]): ≥ 20.3 µM

Sequence: YVASYLLAA
- Kd (HLA-A*02:03; source organism: Homo sapiens): 0.000978 µM
